# In publication PMC5933801, “Cryo-EM structure of infectious bronchitis coronavirus spike protein reveals structural and functional evolution of coronavirus spike proteins” (PLoS Pathogens, 2018):
# B1: IBV spike ectodomain (avian infectious bronchitis coronavirus, strain M41) (domain or fragment)
# chain: LYDSSSYVYYYQSAFRPPNGWHLHGGAYAVVNISSESNNAGSSPGCIVGTIHGGRVVNASSIAMTAPSSGMAWSSSQFCTAHCNFSDTTVFVTHCYKYDGCPITGMLQKNFLRVSAMKNGQLFYNLTVSVAKYPTFKSFQCVNNLTSVYLNGDLVYTSNETTDVTSAGVYFKAGGPITYKVMRKVKALAYFVNGTAQDVILCDGSPRGLLACQYNTGNFSDGFYPFINSSLVKQKFIVYRENSVNTTFTLHNFTFHNETGANPNPSGVQNILTYQTQTAQSGYYNFNFSFLSSFVYKESNFMYGSYHPSCNFRLETINNGLWFNSLSVSIAYGPLQGGCKQSVFSGRATCCYAYSYGGPSLCKGVYSGELDLNFECGLLVYVTKSGGSRIQTATEPPVITRHNYNNITLNTCVDYNIYGRTGQGFITNVTDSAVSYNYLADAGLAILDTSGSIDIFVVQGEYGLTYYKVNPCEDVNQQFVVSGGKLVGILTSRNETGSQLLENQFYIKITNGTRRFRRSITENVANCPYVSYGKFCIKPDGSIATIVPKQLEQFVAPLLNVTENVLIPNSFNLTVTDEYIQTRMDKVQINCLQYVCGNSLDCRDLFQQYGPVCDNILSVVNSIGQKEDMELLNFYSSTKPAGFNTPFLSNVSTGEFNISLLLTTPSSPRRRSFIEDLLFTSVESVGLPTDDAYKNCTAGPLGFLKDLACAREYNGLLVLPPIITAEMQTLYTSSLVASMAFGGITAAGAIPFATQLQARINHLGITQSLLLKNQEKIAASFNKAIGRMQEGFRSTSLALQQIQDVVNKQSAILTETMASLNKNFGAISSVIQEIYQQLDAIQANAQVDRLITGRLSSLSVLASAKQAEHIRVSQQRELATQKINECVKSQSIRYSFCGNGRHVLTIPQNAPNGIVFIHFSYTPDSFVNVTAIVGFCVKPANASQYAIVPANGRGIFIQVNGSYYITARDMYMPRAITAGDIVTLTSCQANYVSVNKTVITTFVDNDDFDFNDELSKWWNDTKHELPDFDKFNYTVPILDIDSEIDRIQGVIQGLNDSLIDLEKLS
# modifications: glycans N-linked to 20 sites
# notes: Spike protein of avian infectious bronchitis coronavirus (IBV) strain M41, GenBank ABI26423.1, ectodomain residues 20-1084; transmembrane anchor and intracellular domain replaced by GCN4 and His6 tags; The structural model holds residues 21-1022 except 702-710; The GCN4 tag is a trimerization tag; also called trimeric IBV spike ectodomain; source: Sf9 insect cells (Bac-to-Bac), harvested from …
# Target: the molecule itself
# Assay: cryo-EM structure; IBV spike ectodomain 0.35 mg/ml in 2 mM Tris pH7.2 and 20 mM NaCl, plunge-frozen; pre-fusion state; three-fold noncrystallographic symmetry constraints in refinement
protein,measurement,value
B1,stoichiometry N,3
